Results on 24 sequences are retold here after the DeepSol protein solubility set.

The nature of the data set: soluble on expression in E. coli; label from the status in PepcDB or PDB records.
“AMNLIFLGTSAGVPTRTRNVTAILLNLQHPTQSGLWLFDCGEGTQHQLLHTAFNPGKLDKIFISHLHGDHLFGLPGLLCSRSMSGIIQPLTIYGPQGIREFVETALRISGSWTDYPLEIVEIGAGEILDDGLRKVTAYPLEHPLECYGYRIEEHDAPGALNAQALKAAGVPPGPLFQELKAGKTITLEDGRQINGADYLAAPVPGKALAIFGDTGPCDAALDLAKGVDVMVHEATLDITMEAKANSRGHSSTRQAATLAREAGVGKLIITHVSSRYDDKGCQHLLRECRSIFPATELANDFTVFNV”: the “soluble on expression in E. coli” value is on record as “soluble”.

As to “AMNTDLKLPAGKTMTIEDVKQLLERYQMALKKTGEQLGWAYEQAAFPYTVRIHESVLYLQGDGRLYKGMAISVRTAGEETFIDIALPPGATHGDKGKANEFSKWLAKTLGGELHLFSGRTMVFGSA”, the “soluble on expression in E. coli” value is on record as “soluble”.

Regarding “ANLYWFRADWFDDADTKAAFKEKYGYDLGVPLNWSAYEDIAEFFTGRDMSALGGPKSAYGSMDYGKKDPSLGWRYTDAWMSMAGMGDKGDPNGLPVDEWGIRVDENSRPVGSCVARGGATNDAAAVYAITKSIEWLQKYAPPQAAGMTFSESGPVPAQGEVAQQIFWYTAFTADMVKEGLPVMNEDGTPKWRMAPSPHGAYWSEGTKVGYQDVGSWTLLKSTPDERAKAAWLYAQFVSSKTVDVKKSHVGLTFVRESTIQHQ”, the “soluble on expression in E. coli” value is reported as “not soluble”.

Regarding “APADKPQVLASFTQTSASSQNAWLAANRNQSAWAAYEFDWSTDLCTQAPDNPFGFPFNTACARHDFGYRNYKAAGSFDANKSRIDSAFYEDMKRVCTGYTGEKNTACNSTAWTYYQAVKIFG”, the “soluble on expression in E. coli” value was “soluble”.

For the sequence “APPAAGQQQPPREPPAAPGAWRQQIQWENNGQVFSLLSLGSQYQPQRRRDPGAAVPGAANASAQQPRTPILLIRDNRTAAARTRTAGSSGVTAGRPRPTARHWFQAGYSTSRAREAGASRAENQTAPGEVPALSNLRPPSRVDGMVGDDPYNPYKYSDDNPYYNYYDTYERPRPGGRYRPGYGTGYFQYGLPDLVADPYYIQASTYVQKMSMYNLRCAAEENCLASTAYRADVRDYDHRVLLRFPQRVKNQGTSDFLPSRPRYSWEWHSCHQHYHSMDEFSHYDLLDANTQRRVAEGHKASFCLEDTSCDYGYHRRFACTAHTQGLSPGCYDTYGADIDCQWIDITDVKPGNYILKVSVNPSYLVPESDYTNNVVRCDIRYTGHHAYASGCTISPY”, the “soluble on expression in E. coli” value is “soluble”.

Regarding “AQFQYPFKEVYYLETSPRAHRVILYTKTDRLEFTASLEEVFKQEPRLLQCHRSFLINPANVVHLDKKEKLLFFPNGGSCLIARYKVREVSEAINKLH”, the “soluble on expression in E. coli” value is on record as “not soluble”.

In the case of “AQGQQGQVRLLCNTAALTEYLPELLASYLAENPGVSVDVQELPSLRIVQAITQGMADLGIVSTAAPSEHLQTRPFRDDPLVLVTPQAHPLASALAPSFVDSLAHGYVGLGAGSALGLYLEEQALHEGQRMQVRVRAEGFDGV”, the “soluble on expression in E. coli” value is recorded as “not soluble”.

For “AQVSNGSNSGQMEEINTKEVAQRITTELKRYSIPQAIFAQRVLCRSQGTLSDLLRNPKPWSKLKSGRETFRRMWKWLQEPEFQRMSALRLAACKRKEQEHGKDRGNT”, the “soluble on expression in E. coli” value is “soluble”.

With “ARTVVLITGCSSGIGLHLAVRLASDPSQSFKVYATLRDLKTQGRLWEAARALACPPGSLETLQLDVRDSKSVAAARERVTEGRVDVLVCNAGLGLLGPLEALGEDAVASVLDVNVVGTVRMLQAFLPDMKRRGSGRVLVTGSVGGLMGLPFNDVYCASKFALEGLCESLAVLLLPFGVHLSLIECGPVHTAFMEKVLGSPEEVLDRTDIHTFHRFYQYLAHSKQVFREAAQNPEEVAEVFLTALRAPKPTLRYFTTERFLPLLRMRLDDPSGSNYVTAMHREVFGDVPAKAEAGAEAGGGAGPGAEDEAGRSAVGDPELGDPPAAPQ”, the “soluble on expression in E. coli” value was “soluble”.

On to “ARVDQTPQRITKETGESLTINCVVRDSRCVLSTGYWYRKPPGSRNEESISDGGRYVETVNRGSKSFSLRINDLTVKDSGTYRCKPESRYGSYDAVCAALNDQYGGGTVVTVNAAAHHHHHH”, for which the “soluble on expression in E. coli” value was “soluble”.

For “ASASTPHALLLISIDGLRADMLDRGITPNLSHLAREGVRARWMAPSYPSLTFPNHYTLVTGLRPDHHGIVHNSMRDPTLGGFWLSKSEAVGDARWWGGEPVWVGVENTGQHAATWSWPGSEAAIKGVRPSQWRHYQKGVRLDTRVDAVRGWLATDGAQRNRLVTLYFEHVDEAGHDHGPESRQYADAVRAVDAAIGRLLAGMQRDGTRARTNIIVVSDHGMAEVAPGHAISVEDIAPPQIATAITDGQVIGFEPLPGQQAAAEASVLGAHDHYDCWRKAELPARWQYGSHPRIPSLVCQMHEGWDALFPDKLAKRAQRGTRGSHGYDPALPSMRAVFLAQGPDLAQGKTLPGFDNVDVYALMSRLLGIPAAPNDGNPATLLPALRMPPAPDAR”, the “soluble on expression in E. coli” value is “soluble”.

For the sequence “ASEEEKAWLMASRQQLAKETSNFGFSLLRKISMRHDGNMVFSPFGMSLAMTGLMLGATGPTETQIKRGLHLQALKPTKPGLLPSLFKGLRETLSRNLELGLTQGSFAFIHKDFDVKETFFNLSKRYFDTECVPMNFRNASQAKRLMNHYINKETRGKIPKLFDEINPETKLILVDYILFKGKWLTPFDPVFTEVDTFHLDKYKTIKVPMMYGAGKFASTFDKNFRCHVLKLPYQGNATMLVVLMEKMGDHLALEDYLTTDLVETWLRNMKTRNMEVFFPKFKLDQKYEMHELLRQMGIRRIFSPFADLSELSATGRNLQVSRVLQRTVIEVDERGTEAVAGILSEITAYSMPPVIKVDRPFHFMIYEETSGMLLFLGRVVNPTLL”, the “soluble on expression in E. coli” value was “soluble”.

In the case of “ASELNIYSARHYNADFEIIKKFEEKTGIKVNHTQAKASELIKRLSLEGSNSPADIFITADISNLTEAKNLGLLSPVSSKYLEEFIPAHLRDKDKEWFAITKRARIIAYNKNTNIDISKMKNYEDLAKAEFKGEIVMRSATAPYSKTLLASIIANDGNKEAKAWAKGVLENLATNPKGGDRDQARQVFAGEAKFAVMNTYYIGLLKNSKNPKDVEVGNSLGIIFPNQDNRGTHINISGIAMTKSSKNQDAAKKFMEFMLSPEIQKILTDSNYEFPIRNDVELSQTVKDFGTFKEDQIPVSKIAENIKEAVKIYDEVGFRIEGR”, the “soluble on expression in E. coli” value is recorded as “soluble”.

“ASIYKNKKSHEQLSALKGSFCRNQFPGQSEVEHLTKVTGLSTREVRKWFSDRRYHCRNLKGSR”: the “soluble on expression in E. coli” value is on record as “soluble”.

Consider “ASMTGGQQMGRGSASLPACPEESPLLVGPMLIEFNMPVDLELVAKQNPNVKMGGRYAPRDCVSPHKVAIIIPFRNRQEHLKYWLYYLHPVLQRQQLDYGIYVINQAGDTIFNRAKLLNVGFQEALKDYDYTCFVFSDVDLIPMNDHNAYRCFSQPRHISVAMDKFGFSLPYVQYFGGVSALSKQQFLTINGFPNNYWGWGGEDDDIFNRLVFRGMSISRPNAVVGTTRHIRHSRDKKNEPNPQRFDRIAHTKETMLSDGLNSLTYQVLDVQRYPLYTQITVDIGTPS”, for which the “soluble on expression in E. coli” value is on record as “soluble”.

Regarding “ASRPHQWQTDEEGVRTGKCSFPVKYLGHVEVDESRGMHICEDAVKRLKATGKKAVKAVLWVSADGLRVVDEKTKDLIVDQTIEKVSFCAPDRNFDRAFSYICRDGTTRRWICHCFMAVKDTGERLSHAVGCAFAACLERKQKR”, the “soluble on expression in E. coli” value is given as “soluble”.

Turning to “ASVKDTYTDRLDDWNGIIAGNQYYDSKNDQMAKLNQELEGKVADSLSSISSQADRIYLWEKFSNYKTSANLTATYRKLEEMAKQVTNPSSRYYQDETVVRTVRDSMEWMHKHVYNSEKSIVGNWWDYEIGTPRAINNTLSLMKEYFSDEEIKKYTDVIEKFVPDPEHFRKTTDNPFKALGGNLVDMGRVKVIAGLLRKDDQEISSTIRSIEQVFKLVDQGEGFYQDGSYIDHTNVAYTGAFGNVLIDGLSQLLPVIQKTKNPIDKDKMQTMYHWIDKSFAPLLVNGELMDMSRGRSISRANSEGHVAAVEVLRGIHRIADMSEGETKQRLQSLVKTIVQSDSYYDVFKNLKTYKDISLMQSLLSDAGVASVPRTSYLSAFNKMDKTAMYNAEKGFGFGLSLFSSRTLNYEHMNKENKRGWYTSDGMFYLYNGDLSHYSDGYWPTVNPYKMPGTTETDAKRADSDTGKVLPSAFVGTSKLDDANATATMDFTNWNQTLTAHKSWFMLKDKIAFLGSNIQNTSTDTAATTIDQRKLESSNPYKVYVNDKEASLTEQEKDYPETQSVFLESSDSKKNIGYFFFKKSSISMSKALQKGAWKDINEGQSDKEVENEFLTISQAHKQNGDSYGYMLIPNVDRATFNQMIKELESSLIENNETLQSVYDAKQGVWGIVKYDDSVSTISNQFQVLKRGVYTIRKEGDEYKIAYYNPETQESAPDQEVFKKLEQHHHHHH”, the “soluble on expression in E. coli” value was “soluble”.

For “ATGPRYKVPMRRRREARTDYHQRLRLLKSGKPRLVARKSNKHVRAQLVTLGPNGDDTLASAHSSDLAEYGWEAPTGNMPSAYLTGLLAGLRAQEAGVEEAVLDIGLNSPTPGSKVFAIQEGAIDAGLDIPHNDDVLADWQRTRGAHIAEYDEQLEEPLYSGDFDAADLPEHFDELRETLLDGDIEL”, the “soluble on expression in E. coli” value is listed as “soluble”.

On to “ATRDFLQRAEAAYKTDGGAAGLGQKAFVKMMQEVCELPSMVAYSLFKRLTGCEAGEEEGAAVPRDTFIKFWTGRGLVTAPPPKRAFDSLRPDGQDYLTFADFWPMMECVLRYHPGLEFLAETQEFQRKYAETVIHRIFYSLNKCGSGRLTFREFRSGELMDALYALDRENDINKILKFFSYEHFYVIYCKFWELDQDHDFQLDKTDLAHYSNCALSYVIVDRIFEEAPRKFKAGTPPGKMCYEDFVWFILSEEDKTTDTALTYWFRCVDLDGDGVIRPREMLYFYEEQLRRLEGWNQEPVQFEDLLCQLHDMLSPAKEGAFTLRDLKRTKPQSGLFFSSLFSLHKFVGFENRDPFAQRAEAAEFTGLSDWDKFAKIEYFRLASEDD”, for which the “soluble on expression in E. coli” value is recorded as “soluble”.

Consider “ATYAAASSALVPRGSHMYAPKLQGPVAVYTWEGNQVNITCEVFAYPSATISWFRDGQLLPSSNYSNIKIYNTPSASYLEVTPDSENDFGNYNCTAVNRIGQESLEFILVQADTPSSPSIDQVEPYSSTAQVQFDEPEATGGVPILKYKAEWRAVGEEVWHSKWYDAKEASMEGIVTIVGLKPETTYAVRLAALNGKGLGEISAASEFKTQPVQGE”, for which the “soluble on expression in E. coli” value is “soluble”.

As to “AYGKKSQTEVISFEEVVHPAEKIREALQVGKNEAIYELIRRRMLDGEPMTVEKIYLPQAYVQGHTKQDFEGSLFCLIEKNVEIAYSHQEIEAILVEAEISELLNVPVGQPLLQVHSITYALDATPILYDVSLYRADRYTFKNTLTRYSPSENNQVELGGSWNE”, the “soluble on expression in E. coli” value is reported as “soluble”.

As to “DAKEKRLREIQFEKEMIERDMREYRGFSRAVRAVFEEKERFPGLVDVVSNLIEVDEKYSLAVSVLLGGTAQNIVVRNVDTAKAIVEFLKQNEAGRVTILPLDLIDGSFNRISGLENERGFVGYAVDLVKFPSDLEVLGGFLFGNSVVVETLDDAIRMKKKYRLNTRIATLDGELISGRGAITGGREERSSNVFERRIKLKHLEQEMEETERQI”, the “soluble on expression in E. coli” value is “soluble”.

Regarding “DALESKKINEALLKQGEALINQLNDRARADTVRYAEEVVKTAAERVKEASQNLTDYRIANGVFDLKAQSEVQMGLVSKLQDELIVIQTQLDQVKAVTPENPQIPGLQAREQSLRKEIDQQLRAISGGGHSSLSNQAAEYQRVYLENQLAEQQLAAAMTSLESAKVEADRQQLYLEVISQPSLPDLAHEPKR”, the “soluble on expression in E. coli” value is given as “soluble”.

As to “DALNRFHDQPLNETELLALMGEMEGKISGGIHYDNVAPCYLGGVQLMLEELGIISQEVPCFDEWYWVMAYPGIKVSTAEAREILPSQYRRQDIIAHGRHLAGFIHACHSGQPELAAKMIKDVIAEPYREKLLPGFANARQ”, the “soluble on expression in E. coli” value is given as “not soluble”.
